# Results as given in patent US20230416341A1, “IMPROVED THROMBIN INHIBITORS FOR TREATMENT OF THROMBOEMBOLIC CONDITIONS” (priority 2020, published 2023).
# B1: SEQ ID No:2 (MDL-1) Y33 (sulfated at Y33) (peptide)
# peptide: YPERDSAKDGNEEQERALPVNVQERGEVADADYDDYDEEGTTPTVDPTAQTARPRLQGNQS
# modifications: not checked
# B2: SEQ ID No:2 (MDL-1) DS (sulfated at Y33 and Y36) (peptide)
# peptide: B1 peptide
# modifications: not checked
# B3: SEQ ID No:2 (MDL-1) Y36 (sulfated at Y36) (peptide)
# peptide: B1 peptide
# modifications: not checked
# B4: SEQ ID No:2 (MDL-1) Un (unsulfated) (protein)
# chain: B1 peptide
# B5: SEQ ID No:1 (MDL-2) Y32 (sulfated at Y32) (peptide)
# chain: YPESDSAKDDGNQEKEKALLVKVQERSDDGDYDEYDNDETTHTPDPSAPTARPRIREHQA
# B6: SEQ ID No:1 (MDL-2) DS (sulfated at Y32 and Y35) (peptide)
# peptide: B5 chain
# modifications: not checked
# B7: SEQ ID No:1 (MDL-2) Un (unsulfated) (protein)
# chain: B5 chain
# B8: SEQ ID No:1 (MDL-2) Y35 (sulfated at Y35) (peptide)
# chain: B5 chain
# Experiments:
# [1] = molecular target: T1, human α-thrombin (Haematologic Technologies) (human), P00734; assay: inhibition of amidolytic activity of human α-thrombin (0.2 nM enzyme, chromogenic substrate Tos-Gly-Pro-Arg-pNA), tight-binding Morrison fit
# [2] = molecular target: T1, human α-thrombin (Haematologic …); assay: thrombin inhibition; sulfated at Y33; conditions: chains peptide; modification not given
# [3] = molecular target: T1, human α-thrombin (Haematologic …); assay: inhibition of amidolytic activity of human α-thrombin; reference is unsulfated SEQ ID No:2
# [4] = molecular target: T1, human α-thrombin (Haematologic …); assay: thrombin inhibition; sulfated at Y33 and Y36; conditions: chains peptide; modification not given
# [5] = molecular target: T1, human α-thrombin (Haematologic …); assay: thrombin inhibition; sulfated at Y36; conditions: chains peptide; modification not given
# [6] = molecular target: T1, human α-thrombin (Haematologic …); assay: thrombin inhibition; unsulfated; unit from column head of Figure 1 table; conditions: chains peptide; modification not given
# [7] = molecular target: T1, human α-thrombin (Haematologic …); assay: thrombin inhibition; sulfated at Y32; conditions: chains peptide; modification not given
# [8] = molecular target: T1, human α-thrombin (Haematologic …); assay: inhibition of amidolytic activity of human α-thrombin; reference is unsulfated SEQ ID No:1
# [9] = molecular target: T1, human α-thrombin (Haematologic …); assay: thrombin inhibition; sulfated at Y32 and Y35; conditions: chains peptide; modification not given
# [10] = molecular target: T1, human α-thrombin (Haematologic …); assay: thrombin inhibition; unsulfated; conditions: chains peptide; modification not given
# [11] = molecular target: T1, human α-thrombin (Haematologic …); assay: thrombin inhibition; sulfated at Y35; conditions: chains peptide; modification not given
binder,measurement,setting,value
B1,Ki,[1],< 20 nM
same,Ki,[2],3.59 nM
B2,fold more potent than the unsulfated counterpart,[3],10 fold
same,Ki,[1],< 20 nM
same,Ki,[4],2.06 nM
B3,Ki,[1],< 20 nM
same,Ki,[5],17.6 nM
B4,Ki,[6],73.8 nM
B5,Ki,[7],1.99 nM
same,Ki,[1],< 3 nM
B6,fold more potent than the unsulfated counterpart,[8],> 100 fold
same,Ki,[9],0.156 nM
same,Ki,[1],< 3 nM
B7,Ki,[10],27.2 nM
B8,Ki,[11],2.77 nM
same,Ki,[1],< 3 nM
